Experimental data from article PMC6098246, “Zinc(II) binding on human wild-type ISCU and Met140 variants modulates NFS1 desulfurase activity” (Biochimie, 2018).
Where a chain is given by its changes, count along the chain named. Names may count otherwise.

B1: biotinylated human ISCU wild-type (Δ1-34) (natural protein, UniProt Q9H1K1 35-167, looked up)
chain: YHKKVVDHYENPRNVGSLDKTSKNVGTGLVGAPACGDVMKLQIQVDEKGKIVDARFKTFGCGSAIASSSLATEWVKGKTVEEALTIKNTDIAKELCLPPVKLHCSMLAEDAIKAALADYKLKQEPKKGEAEKK
modifications: biotin (site not stated)
notes: human ISCU, construct Δ1-34 of the 167-aa precursor (133-aa mature protein without the mitochondrial signal peptide); the two conditions are two assays; Measured mass of the apo-protein 14604 Da; also called ISCUWT; WT; source: E. coli BL21 (DE3)-R3-pRARE2, purified (Ni Sepharose, Superdex S75, His-tag removed by TEV)
B2: biotinylated human ISCU M140L (Δ1-34) (natural protein, UniProt Q9H1K1 35-167, looked up)
chain: B1 chain with M106L
modifications: biotin (site not stated)
notes: human ISCU, construct Δ1-34 of the 167-aa precursor, variant M140L; source: E. coli BL21 (DE3)-R3-pRARE2, purified (Ni Sepharose, Superdex S75, His-tag removed by TEV)
B3: biotinylated human ISCU M140I (Δ1-34) (natural protein, UniProt Q9H1K1 35-167, looked up)
chain: B1 chain with M106I
modifications: biotin (site not stated)
notes: human ISCU, construct Δ1-34 of the 167-aa precursor, variant M140I; source: E. coli BL21 (DE3)-R3-pRARE2, purified (Ni Sepharose, Superdex S75, His-tag removed by TEV)
B4: biotinylated human ISCU M140V (Δ1-34) (natural protein, UniProt Q9H1K1 35-167, looked up)
chain: B1 chain with M106V
modifications: biotin (site not stated)
notes: human ISCU, construct Δ1-34 of the 167-aa precursor, variant M140V; source: E. coli BL21 (DE3)-R3-pRARE2, purified (Ni Sepharose, Superdex S75, His-tag removed by TEV)

Experiments:
[1] = biological target: T1, NFS1-ISD11-ACP (SDA) complex (human | E. coli, UniProt Q9Y697 56-457; Q9HD34 1-91; P0A6A8 1-78); assay: BLI; biotinylated ISCU on streptavidin sensors, SDA 10 uM to 1.56 nM in solution; 25 °C; 50 mM HEPES pH 7.5, 200 mM NaCl, 5% glycerol, 2 mM TCEP, 5 mM DTT, 0.5 mg/mL BSA, with 100 uM ZnCl2 (zinc-bound ISCU); Kd from response vs. [NFS1], one site-specific binding fit; conditions: both partners purified
T1 construct: human cysteine desulfurase NFS1, non-tagged, construct Δ1-55; human ISD11 (LYRM4), His-tagged; E. coli acyl carrier protein (ACP) of the expression host, co-purified with NFS1-ISD11; PLP was added during the purification; also called NFS1-ISD11-ACP desulfurase complex; NFS1-ISD11 complex; source: co-purified with E. coli ACP; copies: + +

[2] = biological target: T1, NFS1-ISD11-ACP (SDA) complex; assay: BLI; biotinylated ISCU on streptavidin sensors, SDA 10 uM to 1.56 nM in solution; 25 °C; 50 mM HEPES pH 7.5, 200 mM NaCl, 5% glycerol, 2 mM TCEP, 5 mM DTT, 0.5 mg/mL BSA, with 300 uM EDTA (zinc-depleted ISCU); Kd from response vs. [NFS1], one site-specific binding fit; conditions: both partners purified

T1 sequence (Q9Y697 56-457, chain 1 of 3): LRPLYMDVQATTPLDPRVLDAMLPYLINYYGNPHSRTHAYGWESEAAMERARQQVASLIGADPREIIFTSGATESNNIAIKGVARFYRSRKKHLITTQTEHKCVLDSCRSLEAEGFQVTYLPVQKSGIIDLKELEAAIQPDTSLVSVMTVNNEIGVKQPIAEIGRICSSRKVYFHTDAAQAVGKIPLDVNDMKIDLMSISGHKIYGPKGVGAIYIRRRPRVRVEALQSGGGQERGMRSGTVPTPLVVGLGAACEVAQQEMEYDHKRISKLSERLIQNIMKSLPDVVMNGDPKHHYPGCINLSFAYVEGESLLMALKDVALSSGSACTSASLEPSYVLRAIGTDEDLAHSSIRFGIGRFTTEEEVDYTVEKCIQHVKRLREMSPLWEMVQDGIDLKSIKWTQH
T1 sequence (Q9HD34 whole entry, chain 2 of 3): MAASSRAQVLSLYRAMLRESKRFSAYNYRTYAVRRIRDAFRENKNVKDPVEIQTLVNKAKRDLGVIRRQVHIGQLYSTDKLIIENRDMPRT
T1 sequence (P0A6A8 whole entry, chain 3 of 3): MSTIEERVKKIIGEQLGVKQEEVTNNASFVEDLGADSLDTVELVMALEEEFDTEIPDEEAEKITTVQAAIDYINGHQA

Row | Binder | Kd [1] | Kd [2]
1 | B1 | 160 nM | 87.8 nM
2 | B2 | 181 nM | 110 nM
3 | B3 | 194 nM | 97.3 nM
4 | B4 | 218 nM | 85.5 nM
